Publication PMC10705377

Biological target: GluA2-TARPγ2 fusion construct (rat GluA2, GT linker, mouse TARPγ2 truncated following M4) (rat | mouse)
Assay: cryo-EM structure

- stoichiometry N: 4
Substance: GluA2-TARPγ2 fusion construct (rat GluA2, GT linker, mouse TARPγ2 truncated following M4) (receptor)
